In US9567641B2, “Combination therapy for the treatment of cancer using an anti-C-met antibody” (SAMSUNG ELECTRONICS CO., LTD., priority 2013, dated 2017):

What was measured:
Assay type in all cases: cell-based
[1] = system: L3-1Y/IgG2 antibody resistance acquired EBC1 lung cancer cells; assay: Cell viability, CellTiter Glo, resistance-acquired cell line; conditions: L3-1Y/IgG2 antibody alone
Method: To verify whether or not the resistance acquired by repetitive administration of anti-c-Met antibody can be overcome by BCL2L1 inhibition, L3-1Y/IgG2 antibody resistance acquired EBC1 cells, where the resistance against L3-1Y/IgG2 antibody is acquired by treating EBC1 lung cancer cells (JCRB, JCRB0820) with the L3-1Y/IgG2 antibody for at least 3 months, were used. The L3-1Y/IgG2 antibody resistance acquired EBC1 lung cancer cells were prepared referring to Example 4.3.
5000 cells of the L3-1Y/IgG2 antibody resistance acquired EBC1 cells were seeded onto a 96-well plate and 24 hours after, the plate was treated with a BCL2 family inhibitor, ABT-263 (Abbott Laboratories) and 72 hours later after the antibody treatment, a change in the number of cells was measured using CellTiter Glo assay. ABT-263 was treated at a fixed concentration of 0.5 uM, and the L3-1Y/IgG2 antibody was treated by ⅕ dilution each time starting from 2 ug/ml.

[2] = system: HCC1806 breast cancer cells; assay: Cell viability, CellTiter Glo, combination with L3-1Y/IgG2 antibody
Method: (§1) The efficacy of the combination administration of ITGB3 siRNA and L3-1Y/IgG2 antibody was examined in a breast cancer cell line on which the anti-c-Met antibody alone has no effects. For this, HCC1806 (ATCC, CRL-2335) and HCC1954 (ATCC, CRL-2338) cells were used.
(§2) As a control group, All Negative control siRNA (Qiagen, cat. no. 1027281) was used, and as a target siRNA, a mixture of two kinds of siRNAs (see Table 7) that had effects during the screening was used. Transfection was carried out by the same procedures as Example 3.1 and after 24 hours, the cultured cells were treated with L3-1Y/IgG2 antibody at 0 ug/ml, 0.016 ug/ml, 0.08 ug/ml, 0.4 ug/ml, or 2 ug/ml. 72 hours later after the treatment, 100 uL of CellTiter Glo solution (Promega, G7572) was added to each well, which was allowed to stay at a room temperature for 30 min. The number of cells was counted via luminescence signals, which were recorded using Envision 2104 Multi-label Reader (Perkin Elmer).
To verify the effect of the combination therapy using ITGB3 inhibitor and anti-c-Met antibody in breast cancer cells on which the anti-c-Met antibody has no effects, HCC1806 (ATCC, CRL-2335) cells were used. The HCC 1806 cells are a cell line known to have high amounts of c-Met.
5000 cells of HCC1806 cells were seeded onto a 96-well plate, and 24 hours after, the plate was treated with L3-1Y/IgG2 antibody and an ITGB3 inhibitor, cilengitide (Merck KGaA, EMD 121974). 72 hours later after the treatment, a change in the number of cells was measured using CellTiter Glo assay. Cilengitide was treated at a fixed concentration of 10 uM, and the L3-1Y/IgG2 antibody was treated by ⅕ dilution each time starting from 2 ug/ml. For comparison, the same test was conducted using L3-1Y/IgG2 antibody alone.
The efficacy of combination administration was examined in a breast cancer cell line on which the anti-c-Met antibody has no effects. For this, HCC1806 (ATCC, CRL-2335) cells were used.
5000 HCC1806 cells were seeded onto a 96-well plate and 24 hours after, the plate was treated with L3-1Y/IgG2 antibody and an AKT inhibitor, MK-2206 (Merck & Co Inc) and 72 hours later after the antibody treatment, a change in the number of cells was measured using CellTiter Glo assay. MK-2206 was treated at a fixed concentration of 10 uM, and the L3-1Y/IgG2 antibody was treated by ⅕ dilution each time starting from 2 ug/ml. For comparison, the same test was conducted using L3-1Y/IgG2 antibody alone.

[3] = system: HCC1954 breast cancer cells; assay: as above; conditions: L3-1Y/IgG2 antibody alone (negative control siRNA)
Method: as §1, §2

[4] = system: EBC1 lung cancer cell line; assay: Cell viability, CellTiter Blue, combination with L3-1Y/IgG2 antibody; conditions: for concentration at which the L3-1Y/IgG2 antibody showed the maximized efficacy: 5 days
Method: The efficacy of the combination administration of RAF1 siRNA and L3-1Y/IgG2 antibody was examined in lung cancer cell line on which the anti-c-Met antibody has an effect. For this, EBC1 (JCRB, JCRB0820) cells were used. As a control group, All Negative control siRNA (Qiagen, cat. no. 1027281) was used, and as a target siRNA, a mixture of two kinds of siRNAs (see Table 7) that had effects during the screening was used. Transfection was carried out by the same procedures as Example 3.1 and after 24 hours, the cultured cells were treated with L3-1Y/IgG2 antibody at 0 ug/ml, 0.016 ug/ml, 0.08 ug/ml, 0.4 ug/ml, or 2 ug/ml. After 5 days of treatment, for cell number counting, 20 ul of a diluting solution of CellTiter Blue (Promega, G8081) and HBSS at 1:1 was added to each well, which was incubated at 37° C. for 4 hours. Then, the number of cells was counted via fluorescence signals (560/590 nm), which were measured using Envision 2104 Multi-label Reader (Perkin Elmer).

B1: L3-1Y/IgG2: anti-c-Met antibody: huAbF46-H4-A1 heavy chain variable region, human IgG2 hinge and constant region, kappa light chain with H36Y (antibody)
heavy: EVQLVESGGGLVQPGGSLRLSCAASGFTFTDYYMSWVRQAPGKGLEWLGFIRNKANGYTTEYSASVKGRFTISRDNSKNTLYLQMNSLRAEDTAVYYCARDNWFAYWGQGTLVTVSSASTKGPSVFPLAPCSRSTSESTAALGCLVKDYFPEPVTVSWNSGALTSGVHTFPAVLQSSGLYSLSSVVTVPSSNFGTQTYTCNVDHKPSNTKVDKTVERKCCVECPPCPAPPVAGPSVFLFPPKPKDTLMISRTPEVTCVVVDVSHEDPEVQFNWYVDGVEVHNAKTKPREEQFNSTFRVVSVLTVVHQDWLNGKEYKCKVSNKGLPAPIEKTISKTKGQPREPQVYTLPPSREEMTKNQVSLTCLVKGFYPSDIAVEWESNGQPENNYKTTPPMLDSDGSFFLYSKLTVDKSRWQQGNVFSCSVMHEALHNHYTQKSLSLSPGK
light: DIQMTQSPSSLSASVGDRVTITCKSSQSLLASGNQNNYLAWYQQKPGKAPKMLIIWASTRVSGVPSRFSGSGSGTDFTLTISSLQPEDFATYYCQQSYSRPYTFGQGTKVEIKRTVAAPSVFIFPPSDEQLKSGTASVVCLLNNFYPREAKVQWKVDNALQSGNSQESVTEQDSKDSTYSLSSTLTLSKADYEKHKVYACEVTHQGLSSPVTKSFNRGEC
cancer cell growth inhibitory effect (cell viability) [1]: did not occur | growth inhibitory effect (cell viability) ([2]; L3-1Y/IgG2 antibody alone (1/5 dilutions from 2 ug/ml), 72 h): did not occur | cancer cell growth inhibitory efficacy (cell viability) ([2]; L3-1Y/IgG2 antibody alone (negative control siRNA)): did not occur | cancer cell growth inhibitory efficacy (cell viability) [3]: did not occur | concentration at which the L3-1Y/IgG2 antibody showed the maximized efficacy ([4]; co-treated with RAF1 siRNA): 0.016 µg/mL | decrease of the concentration of maximized efficacy by RAF1 siRNA co-treatment ([4]; with versus without RAF1 siRNA): ⅕ | concentration at which the L3-1Y/IgG2 antibody showed the maximized efficacy ([4]; without RAF1 siRNA (negative control siRNA)): 0.08 µg/mL
